From publication PMC10714827
Like-named read-outs stand apart in the source and are kept apart here.

How the values were obtained:
[1] = target: small protein 36 (sP36), untagged, purified from heterologous expression in E. coli (Methanosarcina mazei); assay: MST; RED-NHS-labelled untagged sP36 at 100 nM held constant (the methods say 10 nM for the AmtB1 series); AmtB1-His6 (12.5 µM to 0.38 nM) or His6-GlnK1 (7.5 µM to 0.23 nM) in 16 dilutions; concentrations on monomeric mass; standard capillaries, 100% excitation power, medium or high MST power; three biological replicates
[2] = target: small protein 36 (sP36), untagged, purified from heterologous expression in E. coli (Methanosarcina mazei); assay: SEC; analytical gel filtration, ENrich SEC 650; 0.5 mg untagged sP36 or 0.3 mg His6-sP36; eluted with 50 mM phosphate buffer (150 mM NaCl, pH 8.0), 1 mL/min; BioRad size-exclusion standard
[3] = target: PII-like protein GlnK1 with N-terminal His tag (Methanosarcina mazei) (UniProt Q8PYW7); assay: ITC; 20 µM GlnK1 in the cell titrated with 300 µM sP36; 100 mM potassium phosphate, 2 mM EDTA, pH 7.0, 25°C; model for a single ligand binding site
[4] = target: His6-sP36 purified from homologous expression in M. mazei (Methanosarcina mazei); assay: SEC; analytical gel filtration, ENrich SEC 650; 0.5 mg untagged sP36 or 0.3 mg His6-sP36; eluted with 50 mM phosphate buffer (150 mM NaCl, pH 8.0), 1 mL/min; BioRad size-exclusion standard
[5] = target: small protein 36 (sP36), untagged, purified from heterologous expression in E. coli (Methanosarcina mazei); assay: MST; RED-NHS-labelled untagged sP36 at 100 nM held constant (the methods say 10 nM for the AmtB1 series); AmtB1-His6 (12.5 µM to 0.38 nM) or His6-GlnK1 (7.5 µM to 0.23 nM) in 16 dilutions; concentrations on monomeric mass; standard capillaries, 100% excitation power, medium or high MST power; three biological replicates; remark: listed apart in the source

Question: For “ammonium transporter AmtB1 with C-terminal His6-tag (from UniProt Q8U4U2 1-397) (natural protein)”, which Kd [1] is on record?
Answer: 260 nM

Question: Which results are given for “small protein 36 (sP36), untagged, purified from heterologous expression in E. coli (natural protein)”?
Answer: stoichiometry N [2]: 6; Kd [3]: 5400 nM; stoichiometry N (sP36 monomers per GlnK1 monomer) [3]: 2

Question: How did the stoichiometry N [4] turn out when “His6-sP36 purified from homologous expression in M. mazei (natural protein)” was run?
Answer: 6

B1: PII-like protein GlnK1 with N-terminal His tag (natural protein)
chain: MVAMKYVIAMIRPERLDAVKRELQKIEVSRLTVSSVSGYGAQKGYMEIYRAMEYDANLLEKIKIEIAVNDEFLEPTIEAIKTGAKGSDGYVGSGKIFVLPLENVIRIRTNETGPEAI
Question: For B1, which Kd [5] is on record?
Answer: 1800 nM
